Laboratory results: patent publication US20180312557A1, “Leg1 Protein, Leg1 Gene, and Uses and Drugs thereof” (ZHEJIANG UNIVERSITY, priority 2016, published 2018)

What was measured:
[1] = tested on: Akt phosphorylation of the HepG2 cells; assay: Akt phosphorylation of HepG2 cells incubated with mLeg1 protein partially purified from salivary glands (Western blot); type: cell-based, human
Experimental: 16.1.1 The salivary glands of two to three wild-type mice were harvested and rinsed in the pre-cooled PBS buffer, minced into fine pieces with scissors, and then transferred to a tissue homogenizer, added with 4 ml of lysate buffer (50 mM Tris-Hcl, pH 8.0, 150 mM NaCl, 0.5% NP40, 2× complete), fully homogenized on ice by pipetting through a 23G needle repeatedly, incubated for 30 minutes at 4° C. in a vertical shaker, and then centrifuged at 12000 g at 4° C. for 15 minutes to collect the supernatant.
16.1.2 The supernatant was passed through a sepharose 6B gel filtration column at a constant speed at 4° C., wherein the PBS buffer was used for elution, and different eluted components were separately collected by 4 ml per tube.
16.1.3 The content of mLeg1 in each tube was detected by Western blot. The tube with the highest mLeg1 content was taken as partially purified mLeg1, and the concentration of mLeg1 protein was estimated using the recombinantly-expressed mLeg1 protein in Escherichia coli as a reference, for subsequent experiments.
16.1.4 The partially purified mLeg1 protein was diluted to different concentrations (3.14×10^−2 ng/0.314 ng/μl and 3.14 ng/μl), and the different concentrations of mLeg1 protein were added to HepG2 culture medium respectively to culture HepG2, followed by incubation at 37° C. for 20 minutes, then total protein was extracted (as to the method of extraction, reference can be made to step 13.2), and Akt phosphorylation level at the different concentrations was detected by Western blot (referring to step 14.3, anti-p-Akt antibody (S473, Cell signaling #4060P) was selected as the corresponding antibody, and the dilution ratio was 1:1000).
16.2.1 mLeg1 protein-enriched components from wild-type mice and from mLeg1^Δ/Δ mice were extracted respectively. […]
16.2.3 The Akt phosphorylation level at different concentrations was detected by Western blot (reference can be made to step 13.2 for details, anti-p-Akt antibody (S473, Cell signaling #4060P) was selected as the corresponding antibody, and the dilution ratio in use was 1:1000).

[2] = tested on: intracellular tyrosine phosphorylation in HepG2 cells; assay: Total intracellular tyrosine phosphorylation in HepG2 cells (antibody 4G10); type: cell-based, human; settings: HepG2, partially purified mLeg1 vs no addition
Experimental: 18.1 Partially purified mLeg1 was added to the HepG2 cell medium to culture the HepG2 cells, and then total protein was extracted.
18.2 The phosphorylation level of the total intracellular tyrosine was detected through the tyrosine phosphorylation antibody 4G10 (Millipore, 05-321).

EGFR = target: T1, EGFR (Homo sapiens, UniProt P00533); assay: Phospho-RTK array and EGFR phosphorylation specific antibody, HepG2 cells: EGFR; type: cell-based
T1 construct: endogenous in cells; host or cells: HepG2
Experimental: (§1) 19.1 The screening of receptor tyrosine kinase was performed by a RTK assay kit (Proteome Profiler Human Phospho-RTK Array Kit, R&D Cat. no. ARY001B) according to the manufacturer's instruction. The kit can detect 49 of 58 RTKs in total. The operation steps are summarized as follows: mLeg1 and a control were used to treat the cells (cells were grown in a 10 cm petri dish) separately, and then 500 μl of lysis buffer17 was used to lyse the cells; the RTK screening membrane was blocked for 1 hour using Assay buffer1 and then coated with a cell lysate for binding overnight, the resultant product was washed three times with 1× Wash Buffer, 10 minutes each time, then added with Anti-Phospho-Tyrosine-HRP Detection Antibody diluted with 1× Array Buffer2 at the ratio of 1:5000 for incubation at room temperature for 2 hours; followed by washing 3 times with 1× Wash Buffer, 10 minutes each time, then applied with Chemi Reagent Mix and developed, and finally imaged in a fluorescent chemiluminescent imager (Clinx Science Instruments Cat. No. 3400) with the signals recorded.
Further, the inventors of the present disclosure detected the impact of mLeg1 on intracellular EGFR activation level by an EGFR phosphorylation specific antibody.

RTKs = assay: Phospho-RTK array, HepG2 cells: other RTKs; type: cell-based, human; settings: HepG2, Phospho-RTK array (49 RTKs)
Experimental: as §1

[3] = mLeg1 protein in liver of mLeg1Δ/Δ mice after intragastric administration (immunoprecipitation); type: in vivo, mouse
Experimental: 22.1 The column chromatography partially purified mLeg1 protein was intragastrically administered to the mLeg1^Δ/Δ mice at 50 ng of mLeg1 per gram of body weight of the mice.
22.2 The mice were sacrificed at different time points (0, 10, 20, 40, 60 min) after intragastric administration and liver samples were collected, an immunoprecipitation experiment was conducted to pull down mLeg1 protein (if there is any) and its interacting protein in the liver by using mLeg1 antibodies Reference may be made to steps 21.2-21.5.

intracellular EGFR activation level (EGFR; EGFR phosphorylation specific antibody): could activate the EGFR very rapidly | tyrosine phosphorylation in EGFR (EGFR; HepG2, Phospho-RTK array): increases significantly | time within which EGFR is activated (EGFR; in vitro experiments): ≤ 1 min | time within which the phosphorylation level of EGFR began to decrease (EGFR; in vitro experiments): ≤ 3 min
B1: mLeg1 protein: mouse secretory protein (SEQ ID NO: 2) encoded by mLeg1 gene, partially purified from salivary glands by column chromatography (protein, listed as Mus musculus)
chain: MAVLASWVWVLAGCFCAAVAEVSDSSDPYPPLWEDSPEQLSDYMMEDGNYIINPWVYTDRMGMYRILLEETAMYFAKYGPENEQNLLWGLPLQFGWQYQSGRLADPTGMTDCGNELNESLCVSVDSWWADINYYLSVIPFLAAVDSGITGISPNQITILPPPKDQMRFCYNVSDCQSAVPGTMNRWRDFFQYMQLNSSDFDGLLNYLWEAHASSLDYPTSAFGDRYNFYSEKEANFEENWAIAVNYLAAARLPTTQNRTYSFQRGLPPRVLVDTDIAPFIPDFTPLQNEVLVSLKLLGDTDRNSGSLSLTLWENLMSTKLARTLFLKAFEEFLATSS
modifications: partially purified
induction of Akt phosphorylation ([1]; HepG2, 37° C. 20 minutes, 3.14×10^−2, 0.314 and 3.14 ng/μl): could induce Akt phosphorylation | level of partially purified mLeg1 able to induce Akt phosphorylation of the HepG2 cells ([1]; HepG2, 20 minutes): nanogram levels | ability to induce Akt phosphorylation ([1]; HepG2, 20 minutes, compared with corresponding components of mLeg1Δ/Δ salivary glands): significantly higher | phosphorylation level of the intracellular tyrosine [2]: far higher than that of the control group | activity of most of the RTKs (RTKs): not influenced | mLeg1 in the liver ([3]; 40 minutes and 60 minutes after intragastric administration): decreased | time at which the amount of mLeg1 protein in the liver reached the maximum value ([3]; mLeg1Δ/Δ mice, 50 ng per gram of body weight, intragastric): 20 min
